Laboratory results reported in patent US20240254258A1 (TRELLIS BIOSCIENCE, published 2024).

Molecular target: T1, ALK Extracellullar Domain (ECD), generated by Trellis in mammalian cells (human, UniProt Q9UM73 19-1038)
T1 construct: extracellular domain; Recombinant ECD made in-house in mammalian cells; also called ALK ECD; extracellular domain of ALK
Assay: adsorption ELISA on ALK ECD, serial dilutions, estimate of binding affinity
Protocol: Purified mAbs were tested in adsorption ELISA using ALK Extracellullar Domain (ECD), generated by Trellis in mammalian cells. TRL10001 is of particular interest based on its sub-nM affinity to the target.

T1 sequence (Q9UM73 19-1038): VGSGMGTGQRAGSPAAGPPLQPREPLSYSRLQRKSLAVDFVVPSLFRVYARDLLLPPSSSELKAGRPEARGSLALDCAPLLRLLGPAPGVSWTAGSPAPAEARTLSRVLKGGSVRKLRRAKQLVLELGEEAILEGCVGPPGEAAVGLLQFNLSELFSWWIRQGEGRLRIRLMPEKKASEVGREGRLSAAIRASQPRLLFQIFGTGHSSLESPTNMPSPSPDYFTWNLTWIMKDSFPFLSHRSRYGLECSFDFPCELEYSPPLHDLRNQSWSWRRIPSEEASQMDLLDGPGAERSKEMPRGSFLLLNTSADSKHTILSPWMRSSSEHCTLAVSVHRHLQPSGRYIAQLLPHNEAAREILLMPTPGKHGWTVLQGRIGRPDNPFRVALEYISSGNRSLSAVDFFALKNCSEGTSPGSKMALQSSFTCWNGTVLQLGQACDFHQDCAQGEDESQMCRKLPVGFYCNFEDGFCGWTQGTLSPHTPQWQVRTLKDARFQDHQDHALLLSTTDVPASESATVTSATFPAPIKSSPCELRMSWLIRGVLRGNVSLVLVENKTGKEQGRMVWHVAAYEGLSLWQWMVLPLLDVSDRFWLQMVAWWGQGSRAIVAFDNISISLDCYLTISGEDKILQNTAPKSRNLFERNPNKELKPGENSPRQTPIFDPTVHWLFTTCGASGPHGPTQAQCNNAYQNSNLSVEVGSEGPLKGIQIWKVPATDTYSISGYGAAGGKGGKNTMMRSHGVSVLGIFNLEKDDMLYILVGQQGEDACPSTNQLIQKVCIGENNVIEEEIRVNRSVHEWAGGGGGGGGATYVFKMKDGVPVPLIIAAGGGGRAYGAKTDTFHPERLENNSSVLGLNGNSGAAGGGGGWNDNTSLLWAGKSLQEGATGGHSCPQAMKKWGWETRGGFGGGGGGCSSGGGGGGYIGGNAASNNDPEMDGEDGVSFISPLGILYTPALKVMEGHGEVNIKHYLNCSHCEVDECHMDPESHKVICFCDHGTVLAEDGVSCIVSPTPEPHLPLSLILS

Affinity [nM]	Binder
1	TRL10051 (antibody, IgG1, V domains shown, Native human mAb from donor 223) VH: QVQLVESGGGLVQPGGSLRLSCAASGFTFSSYVMSWVRQAPGKGLEWVSSIRVSGDRAHYADSVKGRFTVSRDDSKNTVYLQMNSLRVEDTAVYYCVKDQAERLLRAVTTHFDYWGQGALVTVSS VL: DIVMTQSPLSSPVTLGQPASISCRSSQSLVHSDGNTYLSWLQQRPGQPPRLLIYKVSRRFSGVPDRFSGSGAGTDFTLKISRVEAEDVGIYYCMQASQFPRTFGQGTKVEIKR
1	TRL10005 (antibody, IgG1, V domains shown, Native human mAb from donor 236) VH: QVQLVESGGGLVKPGGSLRLSCAASGFTFNDHYMTWIRQAPGKGLEWISYISSSGGTIFYAESVKGRFTISRDNANNILFLQMNSLRAEDTAVYYCARGALRFLEWSHLGSWGQGTLVTVSS VL: DIVLTQSPGTLSLSPGERATLSCRASQRVSSSYLAWFQQKPGQAPRLLIYGASTRATGIPDRFSGSGSGTDFTLTISRLEPEDFAVYYCQQYGMSSWTFGQGTKVEIKR
75	TRL10014 (antibody, IgG1, V domains shown, Native human mAb from donor 210; also called TRL100014) VH: QVQLVESGGGLVKPGGSLRLSCTASGFSFSDSYMNWIRQAPGKGLEWLAYISTSATYTYSADSVKGRFTISRDNAKNSLYLQMNSLRDEDTAVYYCAREGLFYDGLYGMDVWGQGTTVIVSS VL: DILMTQSPLSLPVTPGEPASISCRSSQSLLHSNGYNYLNWYLQKPGQSPQLLIYLGSNRASGVPDRFSGSGSGTDFTLKISSVEAEDVGVYYCMQALHTPRTFGQGTKVEIKR
